Data set [1] concerns the molecule itself. As to the kind of experiment: SDS PAGE, SEC, XRD; self-association.
Data set [2] deals with the molecule itself. The data set is described as follows: size exclusion chromatography, after EDTA. An excerpt: (§1) FIG. 29: Size Exclusion Chromatograms for various SAKe mutants. A: S6BE-3 HR on a HiLoad Superdex 75 pg 16/600 column. B: S6BE-3CHR on a HiLoad Superdex 200 pg 16/600 column. C: S2BE-3 HR on a HiLoad Superdex 75 pg 16/600 column. D: S6BE-3 HR-L3 on a HiLoad Superdex 200 pg 16/600 column. E: mEm-v22S6BE-3 HR on a HiLoad Superdex 200 pg 16/600 column. F: dS6AC on a HiLoad Superdex 200 pg 16/600 column.
(§2) Concentrated protein samples were loaded on HiLoad Superdex 75 pg 16/600 or HiLoad Superdex 200 pg 16/600 SEC columns (Cytiva). SEC can also be used to assess biological size. All samples were run with a HEPES buffer (20 mM HEPES, pH 8.0, 200 mM NaCl). Proteins expected to interact with metals were incubated with at least 5 mM EDTA prior to SEC injection.
Background: SEC sorts molecules by how far they enter the pores of the column.

Data set [3] deals with the molecule itself. As to the kind of experiment: dialysis to pH 4.0 and X-ray diffraction; self-assembly into crystals. An excerpt:
SAKe's symmetry and modifiable interfaces make it an ideal building block for construction of macromolecular assemblies. […] To understand this reversible self-assembly mechanism, the crystals formed at different pH were investigated with XRD. […] At pH 8.0, His (pKa3 6.08-6.90) and Glu (pKa 4.3-4.4) are deprotonated and the net […] charge of S6BE likely causes mutual repulsion. However, at pH 4 these residues are protonated. Due to its symmetry and dipole-like character, S6BE shape and charge complementarity is then expected to allow for self-assembly into a tight hexagonal packing (FIGS. 2 and 11). A series of hydrogen bonds and hydrophobic interactions can then further stabilize the assembly. Similar mechanisms have been reported for the capsid proteins of cowpea chlorotic mosaic virus (CCMV) [Speir et al. Structure 1995, 3, 63-78; Lavelle et al. J. Phys. Chem. B 2009, 113, 3813-3819; Van Eldijk et al. J. Am. Chem. Soc. 2012, 134, 18506-18509].

Data set [4] concerns the molecule itself. As to the kind of experiment: size exclusion chromatography.
Text: as §1, §2

The values that follow come from patent US20240290419A1 (KATHOLIEKE UNIVERSITEIT LEUVEN, published 2024).

B1: S2BE-3HR (other)
chain: NGLIYAVGGYDGNTHLNSVEAYDPERNEWSLVAPLSTRRSGVGVAVLNGLIYAVGGYDGNTHLNSVEAYDPHRNEWSLVAPLSTRRSGVGVAVL
notes: Designed two-blade truncation of S6BE-3HR; Expressed from pET-28a with an N-terminal hexahistidine tag that was removed with thrombin
B1: the binding result in data set [1] is on record as “binds”.

B2: S6BE-3HR-L3 (other)
chain: NGLIYAVGGYDGSPDGSTHLNSVEAYDPERNEWSLVAPLSTRRSGVGVAVLNGLIYAVGGFATLETESGELVPTELNSVEAYDPHRNEWSLVAPLSTRRSGVGVAVLNGLIYAVGGYDGSPDGSTHLNSVEAYDPERNEWSLVAPLSTRRSGVGVAVLNGLIYAVGGFATLETESGELVPTELNSVEAYDPHRNEWSLVAPLSTRRSGVGVAVLNGLIYAVGGYDGSPDGSTHLNSVEAYDPERNEWSLVAPLSTRRSGVGVAVLNGLIYAVGGFATLETESGELVPTELNSVEAYDPHRNEWSLVAPLSTRRSGVGVAVL
notes: L3 loop graft on the S6BE-3HR scaffold
With B2, the binding result in data set [2] is recorded as “no binding”.

B3: S6BE (other)
chain: MNGLIYAVGGYDGNTHLNSVEAYDPERNEWSLVAPLSTRRSGVGVAVLNGLIYAVGGYDGNTHLNSVEAYDPERNEWSLVAPLSTRRSGVGVAVLNGLIYAVGGYDGNTHLNSVEAYDPERNEWSLVAPLSTRRSGVGVAVLNGLIYAVGGYDGNTHLNSVEAYDPERNEWSLVAPLSTRRSGVGVAVLNGLIYAVGGYDGNTHLNSVEAYDPERNEWSLVAPLSTRRSGVGVAVLNGLIYAVGGYDGNTHLNSVEAYDPERNEWSLVAPLSTRRSGVGVAVL
notes: Designed six-blade B-type SAKe propeller; Expressed with an N-terminal His tag that was removed with thrombin; also called SAKe6BE; S6_6E
For B3, in data set [3], the binding result is “binds”.

B4: dS6AC (other)
chain: NGRIYAVGGYDGSPDGHTHLNSVEAYDPETDEWSFVAPMTTPRSGVGVAVLNGRIYAVGGYDGSPDGHTHLNSVEAYDPETDEWSFVAPMTTPRSGVGVAVLNGRIYAVGGYDGSPDGHTHLNSVEAYDPETDEWSFVAPMTTPRSGVGVAVLNGRIYAVGGYDGSPDGHTHLNSVEAYDPETDEWSFVAPMTTPRSGVGVAVLNGRIYAVGGYDGSPDGHTHLNSVEAYDPETDEWSFVAPMTTPRSGVGVAVLNGRIYAVGGYDGSPDGHTHLNSVEAYDPETDEWSFVAPMTTPRSGVGVAVLSGGRIYAVGGYDGSPDGHTHLNSVEAYDPETDEWSFVAPMTTPRSGVGVAVLNGRIYAVGGYDGSPDGHTHLNSVEAYDPETDEWSFVAPMTTPRSGVGVAVLNGRIYAVGGYDGSPDGHTHLNSVEAYDPETDEWSFVAPMTTPRSGVGVAVLNGRIYAVGGYDGSPDGHTHLNSVEAYDPETDEWSFVAPMTTPRSGVGVAVLNGRIYAVGGYDGSPDGHTHLNSVEAYDPETDEWSFVAPMTTPRSGVGVAVLNGRIYAVGGYDGSPDGHTHLNSVEAYDPETDEWSFVAPMTTPRSGVGVAVL
notes: Genetic fusion of two S6AC units via a Ser linker
Regarding B4, in data set [4], the binding result is “no binding”.
